PMC4080824, “Altered native stability is the dominant basis for susceptibility of α1-antitrypsin mutants to polymerization” (Biochemical Journal, 2014)
Changes are numbered by the printed parent chain. Names may count otherwise.

B1: α1-antitrypsin C232S E162C/V170C (162–170) (natural protein)
chain: DPQGDAAQKTDTSHHDQDHPTFNKITPNLAEFAFSLYRQLAHQSNSTNIFFSPVSIATAFAMLSLGTKADTHDEILEGLNFNLTEIPEAQIHEGFQELLRTLNQPDSQLQLTTGNGLFLSEGLKLVDKFLEDVKKLYHSEAFTVNFGDTEEAKKQINDYVCKGTQGKICDLVKELDRDTVFALVNYIFFKGKWERPFEVKDTEEEDFHVDQVTTVKVPMMKRLGMFNIQHSKKLSSWVLLMKYLGNATAIFFLPDEGKLQHLENELTHDIITKFLENEDRRSASLHLPKLSITGTYDLKSVLGQLGITKVFSNGADLSGVTEEAPLKLSKAVHKAVLTIDEKGTEAAGAMFLEAIPMSIPPEVKFNKPFVFLMIEQNTKSPLFMGKVVNPTQK
modifications: disulfide bond between C162 and C170 (predominantly in the disulfide-bonded form, >90%); reduced where treated with 100 mM 2-mercaptoethanol
notes: α1-antitrypsin, wild-type (M) ORF on the C232S background; Same construct as m3 with the stated changes; source: E. coli SG13009/pREP4 (pQE-30) or BL21(DE3) (pQE-81L), purified; not shown: His6, N-terminal, kept
B2: α1-antitrypsin C232S K168C/F189C (168–189) (natural protein)
chain: B1 chain with C161E, K167C, C169V, F188C
modifications: disulfide bond between C168 and C189 (predominantly in the disulfide-bonded form, >90%); reduced where treated with 100 mM 2-mercaptoethanol
notes: as for B1
B3: α1-antitrypsin C232S S283C/P361C (283–361) (natural protein)
chain: B1 chain with C161E, C169V, S282C, P360C
modifications: disulfide bond between C283 and C361 (predominantly in the disulfide-bonded form, >90%); reduced where treated with 100 mM 2-mercaptoethanol
notes: as for B1
B4: α1-antitrypsin C232S S292C/T339C (292–339) (natural protein)
chain: B1 chain with C161E, C169V, S291C, T338C
modifications: disulfide bond between C292 and C339 (predominantly in the disulfide-bonded form, >90%); reduced where treated with 100 mM 2-mercaptoethanol
notes: as for B1

Key:
[1] = molecular target: bovine α-chymotrypsin (bovine); test: stoichiometry of inhibition by titration of enzyme activity; inhibitor incubated with 0.5 μM bovine α-chymotrypsin for 30 min at room temperature (21°C) in 20 mM Tris/HCl, 0.1 M NaCl, 0.1% PEG 8000, 10 mM CaCl2 pH 8.0; residual activity on N-succinyl-Ala-Ala-Pro-Phe-p-nitroanilide
[2] = molecular target: bovine α-chymotrypsin (bovine); test: stoichiometry of inhibition by titration of enzyme activity; as the stoichiometry of inhibition assay, protein treated with 100 mM 2-mercaptoethanol (reduced)
[3] = molecular target: the molecule itself; test: FRET or BRET; mutant series; 0.2 mg/ml protein, 4 μM Atto550–Ni-NTA and 4 μM Atto647N–Ni-NTA on the His6 tag, 10 mM NaH2PO4/Na2HPO4, 100 mM NaCl pH 7.4; heat-induced polymerization at 60°C; time to half-maximal signal
[4] = molecular target: the molecule itself; test: FRET or BRET; mutant series; 0.2 mg/ml protein, 4 μM Atto550–Ni-NTA and 4 μM Atto647N–Ni-NTA on the His6 tag, 10 mM NaH2PO4/Na2HPO4, 100 mM NaCl pH 7.4; heat-induced polymerization at 65°C; time to half-maximal signal
[5] = molecular target: the molecule itself; test: FRET or BRET; mutant series; 0.2 mg/ml protein, 4 μM Atto550–Ni-NTA and 4 μM Atto647N–Ni-NTA on the His6 tag, 10 mM NaH2PO4/Na2HPO4, 100 mM NaCl pH 7.4; heat-induced polymerization at 55°C; time to half-maximal signal

| Molecule | SI (stoichiometry of inhibition) [1] | SI (stoichiometry of inhibition) [2] | polymerization half-time (t0.5) [3] [s] | polymerization half-time (t0.5) [4] [s] | polymerization half-time (t0.5) [5] [s] |
| --- | --- | --- | --- | --- | --- |
| α1-antitrypsin C232S K331V (from UniProt P01009 26-418) (natural protein) | 3.9 |  |  |  |  |
| α1-antitrypsin C232S K335A (from UniProt P01009 26-418) (natural protein) | 1 |  |  |  |  |
| α1-antitrypsin C232S K191C/T339C (191–339) (from UniProt P01009 26-418) (natural protein) |  | 1 |  |  |  |
| α1-antitrypsin C232S S292C/T339C (292–339) (from UniProt P01009 26-418) (natural protein) | 1 | 1 |  |  |  |
| α1-antitrypsin C232S E162C/V170C (162–170) (from UniProt P01009 26-418) (natural protein) | 1 | 1 |  |  |  |
| α1-antitrypsin C232S K168C/F189C (168–189) (from UniProt P01009 26-418) (natural protein) | 8.5 |  |  |  |  |
| α1-antitrypsin C232S (AT_(C232S)) (from UniProt P01009 26-418) (natural protein) | 1.1 |  |  |  |  |
| α1-antitrypsin C232S S283C/P361C (283–361) (from UniProt P01009 26-418) (natural protein) | 1 | 1 |  |  |  |
| B1 |  |  | 941 | 226 | 3930 |
| B2 |  |  | 8870 | 1010 | 21900 |
| B3 |  |  | 1430 | 37 | 8970 |
| B4 |  |  | 307 | 51 | 2290 |
